Experimental findings from US20210338779A1, “THERAPEUTIC USE OF GLUCAGON AND COMBINATION INCLUDING THE SAME” (HANMI PHARM. CO., LTD, priority 2018, published 2021) are described below.

Positions of bridges follow the written chain, without caps; N, C: chain ends. Non-standard residues stand in square brackets, D forms with d. No end group written: not given here. Aib = CC(C)(N)C(=O)O

This assay has as its target human glucagon receptor (human, UniProt P47871 26-477). Briefly: cell-based or functional assay.

human glucagon receptor, sequence (P47871 26-477): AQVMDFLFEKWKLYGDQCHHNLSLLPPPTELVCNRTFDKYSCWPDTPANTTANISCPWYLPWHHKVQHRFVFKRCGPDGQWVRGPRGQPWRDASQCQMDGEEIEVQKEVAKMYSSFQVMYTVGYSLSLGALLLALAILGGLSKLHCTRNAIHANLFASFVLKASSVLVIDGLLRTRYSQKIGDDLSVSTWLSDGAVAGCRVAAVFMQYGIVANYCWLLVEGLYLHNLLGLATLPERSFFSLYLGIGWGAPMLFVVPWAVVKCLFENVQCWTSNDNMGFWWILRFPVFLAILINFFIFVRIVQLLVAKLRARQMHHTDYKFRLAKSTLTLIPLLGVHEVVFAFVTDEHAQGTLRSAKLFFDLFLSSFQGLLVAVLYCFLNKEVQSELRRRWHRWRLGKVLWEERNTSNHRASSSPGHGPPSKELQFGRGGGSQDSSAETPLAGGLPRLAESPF

On to Y[Aib]QGTFCSDYSKYLDERRAKDFVQWLMNT (lactam 16-20) [glucagon derivative of SEQ ID NO: 41], for which the “in vitro activity (%, relative to SEQ ID NO: 1); cAMP assay, from EC50” value is 45.2%. Under Y[Aib]QGTFCSDYSKYLDERRAKEFVQWLMNT (lactam 16-20) [glucagon derivative of SEQ ID NO: 38] stands 167%; under Y[Aib]QGTFTSDYSKCLDEKRAKEFVQWLMNT (lactam 16-20) [glucagon derivative of SEQ ID NO: 24], 58%; under Y[Aib]QGTFTSDYSKYLCEKRAQDFVVWLMNT [glucagon derivative of SEQ ID NO: 15], 1.1%. Turning to Y[Aib]QGTFTSDYSKYLDSCDAQDFVVWLINT [glucagon derivative of SEQ ID NO: 9], the “in vitro activity (%, relative to SEQ ID NO: 1); cAMP assay, from EC50” value was below 0.1%. For Y[Aib]QGTFTSDYSKYLCEKRAKEFVQWLMNT (lactam 16-20) [glucagon derivative of SEQ ID NO: 19], the “in vitro activity (%, relative to SEQ ID NO: 1); cAMP assay, from EC50” value was determined as 12.1%. In the case of Y[Aib]QGTFTSDYSKYLDEKRAKEFVQWLMNTC (lactam 16-20) [glucagon derivative of SEQ ID NO: 12], the “in vitro activity (%, relative to SEQ ID NO: 1); cAMP assay, from EC50” value worked out at 56.3%. The value for Y[Aib]QGTFTSDYSKYCDERRAKEFVQWLMNT (lactam 16-20) [glucagon derivative of SEQ ID NO: 35] was 17.7%; that for Y[Aib]QGTFVSDYSKYLDECRAKDFVQWLMNT (lactam 16-20) [glucagon derivative of SEQ ID NO: 27] was 93.6%. As to Y[Aib]QGTFTSDYSKYLDEKCAKEFVQWLMNT [glucagon derivative of SEQ ID NO: 11], the “in vitro activity (%, relative to SEQ ID NO: 1); cAMP assay, from EC50” value turned out to be 4.6%. Under Y[Aib]QGTFTSDYSKYCDEKRAKEFVQWLMNT (lactam 16-20) [glucagon derivative of SEQ ID NO: 23] stands 76.8%. Take Y[Aib]QGTFVSDCSKYLDERRAKDFVQWLMNT (lactam 16-20) [glucagon derivative of SEQ ID NO: 39]: the “in vitro activity (%, relative to SEQ ID NO: 1); cAMP assay, from EC50” value is 3.7%. Consider W[Aib]QGTFTSDYSKCLDERRAKDFVQWLMNT (lactam 16-20) [glucagon derivative of SEQ ID NO: 30], for which the “in vitro activity (%, relative to SEQ ID NO: 1); cAMP assay, from EC50” value turned out to be 0.3%. For W[Aib]QGTFTSDYSKYLDECRAKDFVQWLMNT (lactam 16-20) [glucagon derivative of SEQ ID NO: 26], the “in vitro activity (%, relative to SEQ ID NO: 1); cAMP assay, from EC50” value came out at 1%. Turning to HSQGTFTSDYSKYLDCDRAQDFVQWLMNT [glucagon derivative of SEQ ID NO: 2], the “in vitro activity (%, relative to SEQ ID NO: 1); cAMP assay, from EC50” value worked out at 0.6%. Take Y[Aib]QGTFTSDYSKYLDSCDADDFVVWLINT [glucagon derivative of SEQ ID NO: 10]: the “in vitro activity (%, relative to SEQ ID NO: 1); cAMP assay, from EC50” value is below 0.1%. Regarding Y[Aib]QGTFTSDYSKYLDSRRACDFRLWLMNT [glucagon derivative of SEQ ID NO: 18], the “in vitro activity (%, relative to SEQ ID NO: 1); cAMP assay, from EC50” value is below 0.1%. Take Y[Aib]QGTFTSDYSKYLDCKRAKEFVQWLMNT [glucagon derivative of SEQ ID NO: 14]: the “in vitro activity (%, relative to SEQ ID NO: 1); cAMP assay, from EC50” value stood at 18.1%. Under Y[Aib]QGTFTSDYSKYLDECRAKEFVQWLMNT (lactam 16-20) [glucagon derivative of SEQ ID NO: 20] stands 300%. The value for Y[Aib]QGTFTSDYSKYLDCRRAQVFVQWLMRT [glucagon derivative of SEQ ID NO: 16] was 4.2%; that for Y[Aib]QGTFTSDYSKCLDERRAKDFVQWLMNT (lactam 16-20) [glucagon derivative of SEQ ID NO: 29] was 61.3%; that for Y[Aib]QGTFTSDYSKYLDEKCAKEFVQWLMNT (lactam 16-20) [glucagon derivative of SEQ ID NO: 21] was 57.8%. As for SQGTFTSDYSKYLDECRAKEFVQWLMNT (lactam 15-19) [glucagon derivative of SEQ ID NO: 32], the “in vitro activity (%, relative to SEQ ID NO: 1); cAMP assay, from EC50” value worked out at 0.7%.

Take W[Aib]QGTFVSDYSKYLDECRAKDFVQWLMNT (lactam 16-20) [glucagon derivative of SEQ ID NO: 28]: the “in vitro activity (%, relative to SEQ ID NO: 1); cAMP assay, from EC50” value is below 0.1%.

As to Y[Aib]QGTFTSDYSKYLDEKRCKEFVQWLMNT (lactam 16-20) [glucagon derivative of SEQ ID NO: 22], the “in vitro activity (%, relative to SEQ ID NO: 1); cAMP assay, from EC50” value stood at 148%.

For the molecule Y[Aib]QGTFTSDYSKYLDCKRAKEFVQWLMNT (lactam 17-21) [glucagon derivative of SEQ ID NO: 31], the “in vitro activity (%, relative to SEQ ID NO: 1); cAMP assay, from EC50” value was 6.3%.

As to Y[Aib]QGTFTSDYSKYLDEKRAKCFVQWLMNT (lactam 16-20) [glucagon derivative of SEQ ID NO: 25], the “in vitro activity (%, relative to SEQ ID NO: 1); cAMP assay, from EC50” value is 46.9%. With Y[Aib]QGTFCSDYSKYLDSRRAQDFVQWLMNT [glucagon derivative of SEQ ID NO: 42], the “in vitro activity (%, relative to SEQ ID NO: 1); cAMP assay, from EC50” value stood at 37.9%. As for Y[Aib]QGTFTSDCSKYLDERRAKEFVQWLMNT (lactam 16-20) [glucagon derivative of SEQ ID NO: 36], the “in vitro activity (%, relative to SEQ ID NO: 1); cAMP assay, from EC50” value was 9.9%. On to YXQGTFTSDYSKYLDSRRAQDFVQWLMNT (X at position 2 = aminoisobutyric acid (Aib)) [glucagon derivative of SEQ ID NO: 33], for which the “in vitro activity (%, relative to SEQ ID NO: 1); cAMP assay, from EC50” value is 108%. As for HSQGTFTSDYSKYLDCERAQDFVQWLMNT [glucagon derivative of SEQ ID NO: 3], the “in vitro activity (%, relative to SEQ ID NO: 1); cAMP assay, from EC50” value was 6.1%.

Turning to Y[Aib]QGTFTSDYSKYLDCVRAQDFVQWLMRT [glucagon derivative of SEQ ID NO: 17], the “in vitro activity (%, relative to SEQ ID NO: 1); cAMP assay, from EC50” value was 23.2%. Under W[Aib]QGTFTSDYSKYCDERRAKEFVQWLMNT (lactam 16-20) [glucagon derivative of SEQ ID NO: 34] stands 0.2%; under Y[Aib]QGTFVSDYSKYLDERRAKDFVQWLMNTC (lactam 16-20) [glucagon derivative of SEQ ID NO: 40], 40.8%.
